Test results from patent US20160194391A1 (AstraZeneca / MedImmune, published 2016).

T1: human dimeric IL-23 (eBiosciences 34-8239) (human, UniProt P29460 23-328; Q9NPF7 20-189)
T1 sequence (looked up) 1: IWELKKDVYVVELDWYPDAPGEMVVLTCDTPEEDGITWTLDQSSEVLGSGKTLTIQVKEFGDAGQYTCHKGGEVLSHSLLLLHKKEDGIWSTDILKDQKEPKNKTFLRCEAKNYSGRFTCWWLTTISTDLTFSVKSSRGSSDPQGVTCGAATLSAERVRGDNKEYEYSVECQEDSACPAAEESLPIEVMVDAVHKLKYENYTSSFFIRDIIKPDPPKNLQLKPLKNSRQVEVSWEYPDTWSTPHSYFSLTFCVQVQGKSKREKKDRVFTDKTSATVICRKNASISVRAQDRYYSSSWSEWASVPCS
T1 sequence (looked up) 2: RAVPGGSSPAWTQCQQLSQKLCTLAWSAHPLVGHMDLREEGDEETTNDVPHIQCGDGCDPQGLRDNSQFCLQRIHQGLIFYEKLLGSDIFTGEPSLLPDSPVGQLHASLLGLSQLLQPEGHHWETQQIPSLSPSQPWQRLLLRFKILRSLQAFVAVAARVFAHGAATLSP


Tests used:
Test in all cases: cell-based or functional assay
[1] = target: T2, human IL-6 (human, UniProt P05231 30-212)
[2] = target: T1, human dimeric IL-23 (eBiosciences …)
[3] = target: T2, human IL-6; remark: listed apart in the source

| EC50, B9 cell line bioassay [1] | EC50, mouse splenocyte assay [2] | other results | Binder |
| --- | --- | --- | --- |
|  |  | EC50, neutralization of IL-6, first batch [1]: 1.67 ng/mL; EC50, neutralization of IL-6, second batch [1]: 1.69 ng/mL; EC50, neutralization of IL-23, first batch [2]: 4.96 ng/mL; EC50, neutralization of IL-23, second batch [2]: 3.25 ng/mL | 13A8n-PEG20-31A12c bispecific (bispecific antibody, C-terminal azidohomoalanine (Aha) joined through a linear 20 kDa PEG to the Aha of the other scFv; N-terminal azidohomoalanine (Aha) joined through a linear 20 kDa PEG to the Aha of the other scFv) scFv 1: DIQLTQSPSFLSASVGDRVTITCQASQSISNELSWYQQKPGKAPKLLIYRASTLTSGVPSRFSGSGSGTEFTLTISSLQPEDFATYYCQQGYNSNDVDNVFGGGTKVEIKGGGGSGGGGSGGGGSGGGGSEVQLVESGGGLVQPGGSLRLSCTVSGIDLSSYDLSWVRQAPGKGLEWVGYIYTDSSTWYANWAKGRFTISRDNSKNTLYLQLNSLRAEDTAVYYCARGSTDYAFDTRLDLWGQGTLVTVSS scFv 2: DIQLTQSPSFLSASVGDRVTITCQASEDIESYLAWYQQKPGKAPKLLIYSASTLTSGVPSRFSGSGSGTEFTLTISSLQPEDFATYYCLGADDTTTVFGGGTKVEIKGGGGSGGGGSGGGGSGGGGSEVQLVESGGGLVQPGGSLRLSCTASGFSLSSYWLTWVRQAPGKGLEWVGTIATSSTYYASWAKGRFTISRDNSKNTLYLQLNSLRAEDTAVYYCARGLTTDYDLDLWGQGTLVTVSS |
| 0.933 ng/mL | 5.66 ng/mL |  | 13A8n-PEG-45G5c bispecific (bispecific antibody, C-terminal azidohomoalanine (Aha) joined through a 20 kDa PEG to the Aha of the other scFv; N-terminal azidohomoalanine (Aha) joined through a 20 kDa PEG to the Aha of the other scFv) scFv 1: DIQLTQSPSFLSASVGDRVTITCQASQSISNELSWYQQKPGKAPKLLIYRASTLTSGVPSRFSGSGSGTEFTLTISSLQPEDFATYYCQQGYNSNDVDNVFGGGTKVEIKGGGGSGGGGSGGGGSGGGGSEVQLVESGGGLVQPGGSLRLSCTVSGIDLSSYDLSWVRQAPGKGLEWVGYIYTDSSTWYANWAKGRFTISRDNSKNTLYLQLNSLRAEDTAVYYCARGSTDYAFDTRLDLWGQGTLVTVSS scFv 2: MADIQLTQSPSFLSASVGDRVTITCQSSQSIYNNNLLSWYQQKPGKAPKLLIYFASTLASGVPSRFSGSGSGTEFTLTISSLQPEDFATYYCLGGYDDDADTAFGGGTKVEIKGGGGSGGGGSGGGGSGGGGSEVQLVESGGGLVQPGGSLRLSCTVSGFSLSVYAINWVRQAPGKGLEWVGIINDVDDTAYSAWAKGRFTISRDNSKNTLYLQLNSLRAEDTAVYYCARGYLSYAYAGDAFDPWGQGTLVTVSSGM |
| 0.246 ng/mL | 0.234 ng/mL |  | 13A8c-PEG-22H8c bispecific (bispecific antibody, C-terminal azidohomoalanine (Aha) joined through a 20 kDa PEG to the Aha of the other scFv) scFv 1: DIQLTQSPSFLSASVGDRVTITCQASQSISNELSWYQQKPGKAPKLLIYRASTLTSGVPSRFSGSGSGTEFTLTISSLQPEDFATYYCQQGYNSNDVDNVFGGGTKVEIKGGGGSGGGGSGGGGSGGGGSEVQLVESGGGLVQPGGSLRLSCTVSGIDLSSYDLSWVRQAPGKGLEWVGYIYTDSSTWYANWAKGRFTISRDNSKNTLYLQLNSLRAEDTAVYYCARGSTDYAFDTRLDLWGQGTLVTVSS scFv 2: DIQLTQSPSFLSASVGDRVTITCQSSQTVYKNNLLSWYQQKPGKAPKLLIYLASTLASGVPSRFSGSGSGTEFTLTISSLQPEDFATYYCLGGYDDDADTAFGGGTKVEIKGGGGSGGGGSGGGGSGGGGSEVQLVESGGGLVQPGGSLRLSCTVSGFSLSTYTLNWVRQAPGKGLEWVGAISYDGGTAYANWAKGRFTISRDNSKNTLYLQLNSLRAEDTAVYYCARGFYVYAYIGDAFDPWGQGTLVTVSS |
| 0.138 ng/mL | 2.7 ng/mL |  | 13A8c-40KPEG-31A12c bispecific (bispecific antibody, C-terminal azidohomoalanine (Aha) joined through a linear 40 kDa PEG to the Aha of the other scFv) scFv 1: DIQLTQSPSFLSASVGDRVTITCQASQSISNELSWYQQKPGKAPKLLIYRASTLTSGVPSRFSGSGSGTEFTLTISSLQPEDFATYYCQQGYNSNDVDNVFGGGTKVEIKGGGGSGGGGSGGGGSGGGGSEVQLVESGGGLVQPGGSLRLSCTVSGIDLSSYDLSWVRQAPGKGLEWVGYIYTDSSTWYANWAKGRFTISRDNSKNTLYLQLNSLRAEDTAVYYCARGSTDYAFDTRLDLWGQGTLVTVSS scFv 2: DIQLTQSPSFLSASVGDRVTITCQASEDIESYLAWYQQKPGKAPKLLIYSASTLTSGVPSRFSGSGSGTEFTLTISSLQPEDFATYYCLGADDTTTVFGGGTKVEIKGGGGSGGGGSGGGGSGGGGSEVQLVESGGGLVQPGGSLRLSCTASGFSLSSYWLTWVRQAPGKGLEWVGTIATSSTYYASWAKGRFTISRDNSKNTLYLQLNSLRAEDTAVYYCARGLTTDYDLDLWGQGTLVTVSS |
|  |  | EC50, inhibition of IL-6 induced B9 cell proliferation [3]: 0.065 ng/mL | 28D2 chimeric mAb (antibody, V domains shown) VH: QSLGESGGRLVTPGTPLTLTCTVSGLSLSKNAIAWVRQAPGKGLEWIGIIYAGGATTYASWAKGRFTISKSSTTVDLKITSPTTVDTATYFCAREYAGDSYYTGYTQLDLWGPGTLVTVSS VL: ALVMTQTPASVSAAVGGTVTINCQASEDLFSSLAWFQQKPGQPPKLLIYSASTLASGVPSRFSGSGSGTEFTLTISDLECADAATYYCLGLYYYLTPDPIYGFGGGTKVVVV |
